Assay results published in paper PMC4741643.

Biological target: suppressor of MEK null (sMEK1), full-length human, pGilda fusion (human) (UniProt Q6IN85)
Test: two-hybrid; EGY48 yeast cells; pGilda-sMEK1 as bait, pJG4-5 fusions as prey; growth on medium lacking leucine, blue colonies on X-gal plates with 2% galactose, β-galactosidase activity with ONPG

UniProt Q6IN85, sequence (Q6IN85 whole entry, the tested form may be a part): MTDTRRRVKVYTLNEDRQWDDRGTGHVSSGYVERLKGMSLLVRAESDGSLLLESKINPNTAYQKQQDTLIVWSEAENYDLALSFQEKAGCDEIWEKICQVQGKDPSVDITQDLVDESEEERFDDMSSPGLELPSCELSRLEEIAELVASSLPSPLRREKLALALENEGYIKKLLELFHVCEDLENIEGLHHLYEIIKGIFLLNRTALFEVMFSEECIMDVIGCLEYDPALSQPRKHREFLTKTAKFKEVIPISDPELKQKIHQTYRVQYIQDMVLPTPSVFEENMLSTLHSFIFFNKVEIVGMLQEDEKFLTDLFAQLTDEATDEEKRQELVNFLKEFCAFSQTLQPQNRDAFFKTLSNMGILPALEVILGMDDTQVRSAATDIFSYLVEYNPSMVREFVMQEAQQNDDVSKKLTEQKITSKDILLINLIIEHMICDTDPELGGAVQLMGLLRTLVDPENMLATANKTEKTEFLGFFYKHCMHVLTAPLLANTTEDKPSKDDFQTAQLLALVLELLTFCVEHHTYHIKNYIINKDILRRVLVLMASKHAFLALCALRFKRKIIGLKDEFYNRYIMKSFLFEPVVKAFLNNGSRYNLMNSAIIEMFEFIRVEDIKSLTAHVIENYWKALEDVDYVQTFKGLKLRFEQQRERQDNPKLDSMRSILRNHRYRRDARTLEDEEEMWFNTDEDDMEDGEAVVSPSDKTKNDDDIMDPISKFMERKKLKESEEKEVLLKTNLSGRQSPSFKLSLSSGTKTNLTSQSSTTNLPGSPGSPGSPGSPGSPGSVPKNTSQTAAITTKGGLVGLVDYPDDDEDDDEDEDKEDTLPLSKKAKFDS

vascular endothelial growth factor receptor 2 (VEGFR-2), full-length human, yeast two-hybrid construct (from UniProt P35968 1-1356)
β-galactosidase activity: 92.3 unit
